# Experimental data as given in the supplement of paper PMC7125110.
# ± gives the standard error. Fewer inactive variants are shown than the library holds.
# B1: glmS ribozyme (parent)
# chain: AUAAAAGCGCCAGAACUACAGAAAUGUAGUUGACGAGGAGGAGGUUUAUCGAAUUUUCGGCGGAUGCCUCCAAA
# Variants of: B1
# Experiment: self-cleavage kobs at 2500 uM GlcN6P; higher = faster cleavage; RNA array
# Conditions: with glucosamine-6-phosphate
# Outline: (§1)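 A hybridised Cy3 probe tracked barcoded ribozyme variants, transcribed in situ by E. coli RNA polymerase on sequenced MiSeq chips, at 37 °C. The variants received 40 μM to 10 mM glucosamine-6-phosphate in HEPES/KCl/Mg(OAc)2 buffer. kobs came from decay fits and kcat and KM from weighted Michaelis–Menten fits.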
row,Variant,self-cleavage kobs at 2500 uM GlcN6P [s⁻¹]
1,G9U U31G G66U C71U,< 1e-05
2,C11U U31C G32A A64U,< 1e-05
3,G9C G41A C70U,< 1e-05
4,C11U G35U C67A C70A,5.48e-05 ± 2.6e-05
5,C8A C34A U69C,< 1e-05
6,C11A C34A G60U,< 1e-05
7,C8U A15U G32U U46C,< 1e-05
8,G7U C10U A36U G44U U54A,< 1e-05
9,G9U A12C A33G A53U,< 1e-05
10,C8G A42C U45C C71G,< 1e-05
11,G7U G29C A42C,< 1e-05
12,A12U C16A A42U G51U,< 1e-05
13,C11U G40A C71U,0.000785 ± 0.00023
14,G7U C8U A52G,< 1e-05
15,G7U G9A G29A A39G,< 1e-05
16,G9U G29A G63A,< 1e-05
17,G9U A36G U49A G62U C67U C70G,< 1e-05
18,C8U C16U G60A C67A,< 1e-05
19,G7U G9C U57A G60C,< 1e-05
20,G9C G38C C67U,< 1e-05
21,C8G G35U A52G C61A,< 1e-05
22,C10U A36U G41U A42G U54G G59C,< 1e-05
23,C8A C11U A48U U56A,< 1e-05
24,C8A G40U A53G,< 1e-05

row,Variant,self-cleavage kobs at 2500 uM GlcN6P [s⁻¹]
1,G9A G40U G62U A64U,< 1e-05
2,C8A U30C G62A,< 1e-05
3,A12C C58U G60U,< 1e-05
4,A12G G32C,2.23e-05 ± 9.3e-06
5,C10G G44U C50G,< 1e-05
6,C8A G35C A53U G60A,< 1e-05
7,G9U C10U C34U A53U G63U,< 1e-05
8,C11U G51U C70U,6.92e-05 ± 3.4e-05
9,C11G G29U C50U C67U,0.0015 ± 0.00049
10,A12G U55A U69G,0.000115 ± 3e-05
11,C11G G38U A42U G43A,< 1e-05
12,C10A C11U A36C,< 1e-05
13,C10U A12U A53U,4.13e-05 ± 1.7e-05
14,C10G C16G G35A A53U A64C,< 1e-05
15,C8A A42C A64G,< 1e-05
16,C10U A14C G66C,< 1e-05
17,C8U G9U G63U,< 1e-05
18,C11U G63A U65C,< 1e-05
19,C11U G29A C71G,8.63e-05 ± 3e-05
20,G9U G59U C70U,< 1e-05
21,C11U A14G G43A,< 1e-05
22,G7U G35U G44U,< 1e-05
23,C8A U55A C71U,< 1e-05
24,G9C A15U A42U,< 1e-05

row,Variant,self-cleavage kobs at 2500 uM GlcN6P [s⁻¹]
1,C11G A15G A39C G40A,< 1e-05
2,A12G U31A G38C G40U G41A C58A,< 1e-05
3,G9U G38C U54G G62C,< 1e-05
4,G9U G35C A42U,< 1e-05
5,C8U A36C U45G A53G G60C C67A,< 1e-05
6,G9C C11A G35A G37U A39C G59U,< 1e-05
7,C8U C34G U69G,8.61e-05 ± 2.2e-05
8,G9U A36G C61G C67U,< 1e-05
9,A12G A14U G41A G43A C50U G51A,< 1e-05
10,C10A G35A A36U,< 1e-05
11,C8U A36G C50A G51A C68U C70A,0.000112 ± 4.4e-05
12,C8U G13A G51A,< 1e-05
13,C10G A42G A48C,< 1e-05
14,C10G G37A U56G G62U,< 1e-05
15,G9U G29U A53G,< 1e-05
16,C8A G29C G37C A39U G43A U45G G51A,< 1e-05
17,C8G C10A G44U,< 1e-05
18,A12G A15U U54C C67G,5.41e-05 ± 1.9e-05
19,C8A G29C A42G U45C U46G,< 1e-05
20,G9A A14G A33C G38U U57A,< 1e-05
21,G9A G44U C68G C70G,< 1e-05
22,C10U C16A U45C,< 1e-05
23,C10U G29C A36G G41U U54A,< 1e-05
24,C11U A42G C71U,0.0013 ± 0.0004

row,Variant,self-cleavage kobs at 2500 uM GlcN6P [s⁻¹]
1,C11G G41U U57A,< 1e-05
2,A12G U45A C70G,0.000143 ± 3.9e-05
3,C10U A33G G35U U47A G59C,< 1e-05
4,C10U G60C G63U,< 1e-05
5,C8U G9U U56A C70G,< 1e-05
6,G7C G38A U49C A53C C61A,< 1e-05
7,G7U C16U G29A G60U,< 1e-05
8,C11A G40C G62A C68U,< 1e-05
9,C8A C11U C34G G38A,< 1e-05
10,C10G G43U A64G,< 1e-05
11,C10G A12U C50G,0.000103 ± 2.4e-05
12,C11U U31G A53C,0.000433 ± 0.0001
13,C8G C10G A39C,< 1e-05
14,G9A G62U U69G,< 1e-05
15,A12C G35U A36G U65G,< 1e-05
16,G9A G13C C34A G40C C50U C71G,< 1e-05
17,G7U A12C A36C A39U U47C,< 1e-05
18,G9A C50G C67G,9.36e-05 ± 2.6e-05
19,C11G C34A G37U,< 1e-05
20,C8A G32A A33U U55A,< 1e-05
21,C10A G44C A48C,< 1e-05
22,C11U G35C U54A G60U C71A,< 1e-05
23,G7U G32C C68A,< 1e-05
24,C11U A12G C16U G40A C68U,< 1e-05

row,Variant,self-cleavage kobs at 2500 uM GlcN6P [s⁻¹]
1,C11U C34U G40C,< 1e-05
2,G9A A15G C34G U55C C71G,< 1e-05
3,C11G G37A U49G G60U,< 1e-05
4,C10U C16G C34G A39G,< 1e-05
5,G9C C50G U55A U57G C70U,0.000283 ± 0.0001
6,C11G G29C G37U A52C,< 1e-05
7,C8G A12U U31A G51C,< 1e-05
8,C10G G35U G38A G41U,< 1e-05
9,C10U G43C C61U C70U,< 1e-05
10,A12G U56A U57C,< 1e-05
11,G7U C34U G60U A64G,< 1e-05
12,C8G A33C U56C G63U,< 1e-05
13,G9C U30A G44U G59U C61U G66C C70U,< 1e-05
14,C10U G32U G41C U55G,< 1e-05
15,C8A A53U C71U,< 1e-05
16,G7U G41A A64U,< 1e-05
17,C10U U31G A42C,< 1e-05
18,A12G G38C U45A C67A,< 1e-05
19,C11U G13C G62A C71U,< 1e-05
20,G9A G43C U45G U65C,< 1e-05
21,A12C A52C,< 1e-05
22,C11G U30G U49A,< 1e-05
23,G9C G38A A52U,< 1e-05
24,A12C U55A U69C,0.000484 ± 0.00011

row,Variant,self-cleavage kobs at 2500 uM GlcN6P [s⁻¹]
1,G7C C34A U57C G63C,< 1e-05
2,G7C C50U C67A,< 1e-05
3,C10U U30A U46G,< 1e-05
4,C8A G13A U56C,< 1e-05
5,C10U A12U G63C C70A C71A,5.29e-05 ± 1.7e-05
6,C10U A14U G44U C61U,< 1e-05
7,C10A C16G U31C G37C C58A G59U,< 1e-05
8,A12G G59C C67U,4.19e-05 ± 1.9e-05
9,C11A U49G,< 1e-05
10,C8U C11G C58A,< 1e-05
11,C11U G29A U30G U55A G63C A64G,< 1e-05
12,C8G G29U U69G,< 1e-05
13,C8U A48U G60C,< 1e-05
14,C8U A42C U46A U55A,< 1e-05
15,A12U A15U C50G C70G,0.000215 ± 5.7e-05
16,C8G A42G A52U,< 1e-05
17,A12C C16U C50U,3.9e-05 ± 1.5e-05
18,C10U C11A A12G G41C,< 1e-05
19,G7C G29U G32C A33G,< 1e-05
20,C8G G29U U31A,< 1e-05
21,G7U U57G G60U,< 1e-05
22,A12U A15C G41C C61U G66A,< 1e-05
23,G7U A12U G44U,< 1e-05
24,C11U G29A C70A,0.000404 ± 0.00014

row,Variant,self-cleavage kobs at 2500 uM GlcN6P [s⁻¹]
1,C8A U31C G38A A64C,< 1e-05
2,C10G U46A U56G,< 1e-05
3,C8U C11A G32A U56G,< 1e-05
4,G9U G35A A36G G63U,< 1e-05
5,G7C C8G G40C,< 1e-05
6,C8U A12C A15U U30A U54G U55G C70U,< 1e-05
7,C8G G51C U54G,< 1e-05
8,C11G A42C G43A C70U,< 1e-05
9,A12C G38A U49C A53C,< 1e-05
10,C11A U47G C61G,< 1e-05
11,G9U C16A C34A C50G,7.29e-05 ± 2.6e-05
12,G7U U57C C68G,< 1e-05
13,C11A C16U A53U,5.99e-05 ± 2.5e-05
14,A12U A39U G63A,< 1e-05
15,A12G A14C A33U C34G G38U,< 1e-05
16,C11G G35C U45G C67A,< 1e-05
17,C11A A33C A36G U46G G51A G62A,< 1e-05
18,A12C U31G G32A,0.000161 ± 5.6e-05
19,G7U C11G C16G G32A A53U,< 1e-05
20,G7C G38C G51U,< 1e-05

# Variants of: B1
# Experiment: self-cleavage kobs at 10000 uM GlcN6P; higher = faster cleavage; RNA array
# Conditions: with glucosamine-6-phosphate
# Outline: as §1
row,Variant,self-cleavage kobs at 10000 uM GlcN6P [s⁻¹]
1,C8A C34A U69C,< 1e-05
2,C8G A42C U45C C71G,< 1e-05
3,A12G G32C,3.88e-05 ± 7.6e-06
4,C8A G29C A42G U45C U46G,< 1e-05
5,G9C C50G U55A U57G C70U,0.000426 ± 0.00018
6,G7U C34U G60U A64G,< 1e-05
7,G9A G43C U45G U65C,< 1e-05
8,G9C G38A A52U,< 1e-05
9,C8U A48U G60C,< 1e-05
10,C11U G29A C70A,5.6e-05 ± 1.8e-05
